Test results: ChEMBL document CHEMBL2073843, “Characterization of the role of polar amino acid residues within predicted transmembrane helix 17 in determining the substrate specificity of multidrug resistance protein 3” (Biochemistry, 2003)

Substrate: C[C@]12CC[C@@H]3c4ccc(O)cc4CC[C@H]3[C@@H]1CC[C@@H]2O[C@@H]1O[C@H](C(=O)O)[C@@H](O)[C@H](O)[C@H]1O
Details: HEK293; Membrane vesicle
Description: TP_TRANSPORTER: uptake in membrane vesicles from MRP3-expressing HEK cells

B1: Multidrug resistance associated protein (Homo sapiens), Q96QA9 (protein)
chain: MDALCGSGELGSKFWDSNLSVHTENPDLTPCFQNSLLAWVPCIYLWVALPCYLLYLRHHCRGYIILSHLSKLKMVLGVLLWCVSWADLFYSFHGLVHGRAPAPVFFVTPLVVGVTMLLATLLIQYERLQGVQSSGVLIIFWFLCVVCAIVPFRSKILLAKAEGEISDPFRFTTFYIHFALVLSALILACFREKPPFFSAKNVDPNPYPETSAGFLSRLFFWWFTKMAIYGYRHPLEEKDLWSLKEEDRSQMVVQQLLEAWRKQEKQTARHKASAAPGKNASGEDEVLLGARPRPRKPSFLKALLATFGSSFLISACFKLIQDLLSFINPQLLSILIRFISNPMAPSWWGFLVAGLMFLCSMMQSLILQHYYHYIFVTGVKFRTGIMGVIYRKALVITNSVKRASTVGEIVNLMSVDAQRFMDLAPFLNLLWSAPLQIILAIYFLWQNLGPSVLAGVAFMVLLIPLNGAVAVKMRAFQVKQMKLKDSRIKLMSEILNGIKVLKLYAWEPSFLKQVEGIRQGELQLLRTAAYLHTTTTFTWMCSPFLVTLITLWVYVYVDPNNVLDAEKAFVSVSLFNILRLPLNMLPQLISNLTQASVSLKRIQQFLSQEELDPQSVERKTISPGYAITIHSGTFTWAQDLPPTLHSLDIQVPKGALVAVVGPVGCGKSSLVSALLGEMEKLEGKVHMKGSVAYVPQQAWIQNCTLQENVLFGKALNPKRYQQTLEACALLADLEMLPGGDQTEIGEKGINLSGGQRQRVSLARAVYSDADIFLLDDPLSAVDSHVAKHIFDHVIGPEGVLAGKTRVLVTHGISFLPQTDFIIVLADGQVSEMGPYPALLQRNGSFANFLCNYAPDEDQGHLEDSWTALEGAEDKEALLIEDTLSNHTDLTDNDPVTYVVQKQFMRQLSALSSDGEGQGRPVPRRHLGPSEKVQVTEAKADGALTQEEKAAIGTVELSVFWDYAKAVGLCTTLAICLLYVGQSAAAIGANVWLSAWTNDAMADSRQNNTSLRLGVYAALGILQGFLVMLAAMAMAAGGIQAARVLHQALLHNKIRSPQSFFDTTPSGRILNCFSKDIYVVDEVLAPVILMLLNSFFNAISTLVVIMASTPLFTVVILPLAVLYTLVQRFYAATSRQLKRLESVSRSPIYSHFSETVTGASVIRAYNRSRDFEIISDTKVDANQRSCYPYIISNRWLSIGVEFVGNCVVLFAALFAVIGRSSLNPGLVGLSVSYSLQVTFALNWMIRMMSDLESNIVAVERVKEYSKTETEAPWVVEGSRPPEGWPPRGEVEFRNYSVRYRPGLDLVLRDLSLHVHGGEKVGIVGRTGAGKSSMTLCLFRILEAAKGEIRIDGLNVADIGDPILFSGTLRMNLDPFGSYSEEDIWWALELSHLHTFVSSQPAGLDFQCSEGGENLSVGQRQLVCLARALLRKSRILVLDEATAAIDLETDNLIQATIRTQFDTCTVLTIAHRLNTIMDYTRVLVLDKGVVAEFDSPANLIAARGIFYGMARDAGLA
Which Km does the source give for B1 here?
The Km was 29 µM.
